According to patent publication US20180043012A1 (CSL BEHRING RECOMBINANT FACILITY, published 2018):

Assays:
[1] = target: T1, purified monomeric human VWF (von Willebrand factor) (human, UniProt P04275 764-2813, limits assumed); assay: SPR, CLEC10A immobilized on CM3 chip, fit of the dissociation phase alone
T1 construct: Analyte in the mobile phase in all SPR experiments; Background text says mature plasma VWF is the 2050-residue polypeptide; also called VWF monomers; monomeric VWF
Protocol: Interaction analysis cycles consisted of a 5 min sample injection phase. In this association phase, VWF bound to CLEC10A immobilized on the surface, and increased the surface mass. This phase was followed by a dissociation phase of 17 min in running buffer. In the dissociation phase, the sample was replaced by running buffer and the dissociated VWF was removed from the surface, resulting in a decreased surface mass. All samples were tested as repeat determination. […] Although kinetic data were analyzed using Biacore T200 Evaluation Software Version 1.0 (GE Healthcare Biosciences, Uppsala, Sweden), the data set was only used for information purpose.
SPR was predominantly used as mass detector. An interaction of VWF with CLEC10A was detected by an increase in accumulating mass and specific binding was identified by subtracting the binding response recorded from the control surface, followed by subtracting an average of the buffer blank injections. A time point was positioned 20 seconds after the end of sample injection and was evaluated as representative for a stable protein-ligand interaction, which was of interest. […] Furthermore, testing was performed at least in duplicate and the response was calculated relative to the baseline in each case. […] Moreover, dissociation rate constants (off-rate) were calculated by fitting the dissociation phase alone. […]

[2] = target: T1, purified monomeric human VWF (von …); assay: SPR, MGL1 immobilized on CM3 chip, fit of the dissociation phase alone

B1: recombinant human CLEC10A, extracellular domain (R&D Systems) (receptor, UniProt Q8IUN9 61-316, looked up)
chain: QNSKFQRDLVTLRTDFSNFTSNTVAEIQALTSQGSSLEETIASLKAEVEGFKQERQAGVSELQEHTTQKAHLGHCPHCPSVCVPVHSEMLLRVQQLVQDLKKLTCQVATLNNNASTEGTCCPVNWVEHQDSCYWFSHSGMSWAEAEKYCQLKNAHLVVINSREEQNFVQKYLGSAYTWMGLSDPEGAWKWVDGTDYATGFQNWKPGQPDDWQGHGLGGGEDCAHFHPDGRWNDDVCQRPYHWVCEAGLGQTSQESH
notes: extracellular domain; also called macrophage Gal-type lectin; CD301
Q: B1 was tested. Which koff [1] did it give?
A: 0.00051 s⁻¹

B2: mouse MGL1 (CLEC10A orthologous mouse receptor protein) (receptor, UniProt P49300 57-304, looked up)
chain: QNSQLRRDLGTLRATLDNTTSKIKAEFQSLDSRADSFEKGISSLKVDVEDHRQELQAGRDLSQKVTSLESTVEKREQALKTDLSDLTDHVQQLRKDLKALTCQLANLKNNGSEVACCPLHWTEHEGSCYWFSESEKSWPEADKYCRLENSHLVVVNSLEEQNFLQNRLANVVSWIGLTDQNGPWRWVDGTDFEKGFKNWAPLQPDNWFGHGLGGGEDCAHITTGGPWNDDVCQRTFRWICEMKLAKES
Q: With B2 as the binder, how does the koff [2] read?
A: 0.000406 s⁻¹
